As usually defined, the Kd is the equilibrium constant for the complex coming apart.

The target of assay [1] is DS-Cav1 (RSV F prefusion conformation) (respiratory syncytial virus (strain not stated)) (UniProt P03420). The assay is described as follows: BLI; ForteBio Octet; who was immobilised and buffer not told in the text shown; three biological replicates. In general terms: BLI is a label-free optical method that tracks binding on a fibre tip over time.
The target of assay [2] is purified human MMP-9 (human) (UniProt P14780). The description is as above.
Chain of purified human MMP-9 (human) (P14780 20-707): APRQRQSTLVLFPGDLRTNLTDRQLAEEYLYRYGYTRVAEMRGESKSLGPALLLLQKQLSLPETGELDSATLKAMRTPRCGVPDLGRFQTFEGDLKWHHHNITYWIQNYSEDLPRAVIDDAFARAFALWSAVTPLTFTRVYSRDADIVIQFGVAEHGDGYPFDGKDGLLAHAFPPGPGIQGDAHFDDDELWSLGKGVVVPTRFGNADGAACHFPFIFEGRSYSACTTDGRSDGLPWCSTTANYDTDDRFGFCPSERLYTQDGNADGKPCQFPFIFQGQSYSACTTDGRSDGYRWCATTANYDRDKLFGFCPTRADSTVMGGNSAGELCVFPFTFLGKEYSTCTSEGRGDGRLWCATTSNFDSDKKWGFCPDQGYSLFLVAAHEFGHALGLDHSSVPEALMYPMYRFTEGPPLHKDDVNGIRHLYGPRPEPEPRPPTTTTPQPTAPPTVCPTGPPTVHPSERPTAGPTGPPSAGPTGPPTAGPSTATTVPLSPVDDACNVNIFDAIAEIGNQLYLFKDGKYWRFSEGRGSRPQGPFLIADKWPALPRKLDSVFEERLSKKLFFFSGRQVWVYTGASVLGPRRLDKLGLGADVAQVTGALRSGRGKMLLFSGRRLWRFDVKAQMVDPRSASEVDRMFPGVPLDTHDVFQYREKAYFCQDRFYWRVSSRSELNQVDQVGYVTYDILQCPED

Chain of purified human TGM2 (transglutaminase 2) (P21980 whole entry): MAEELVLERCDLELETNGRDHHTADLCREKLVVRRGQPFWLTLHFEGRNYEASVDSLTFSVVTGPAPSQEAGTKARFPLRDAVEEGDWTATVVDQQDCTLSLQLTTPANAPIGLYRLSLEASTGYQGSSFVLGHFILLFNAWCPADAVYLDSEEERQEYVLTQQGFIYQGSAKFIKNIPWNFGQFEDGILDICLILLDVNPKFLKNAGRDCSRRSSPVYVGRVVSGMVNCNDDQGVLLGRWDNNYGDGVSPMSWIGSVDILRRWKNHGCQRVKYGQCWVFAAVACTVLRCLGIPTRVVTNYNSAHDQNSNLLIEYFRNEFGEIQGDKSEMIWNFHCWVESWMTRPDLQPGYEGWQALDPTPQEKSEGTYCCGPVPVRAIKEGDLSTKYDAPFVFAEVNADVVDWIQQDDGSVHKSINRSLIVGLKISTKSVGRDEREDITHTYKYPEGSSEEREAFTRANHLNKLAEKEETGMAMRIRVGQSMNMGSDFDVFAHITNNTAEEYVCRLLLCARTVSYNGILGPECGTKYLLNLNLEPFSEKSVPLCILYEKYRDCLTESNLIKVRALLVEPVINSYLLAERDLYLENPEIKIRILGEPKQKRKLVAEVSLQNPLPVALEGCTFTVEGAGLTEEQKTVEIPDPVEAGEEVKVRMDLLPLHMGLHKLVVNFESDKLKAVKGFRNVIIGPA

In assay [1], “purified human TGM2 (transglutaminase 2) (from UniProt P21980 1-687) (enzyme)” displayed a Kd of 6.31 µM. In assay [2], “DS-Cav1 (RSV F prefusion conformation) (from UniProt P03420 26-574) (natural protein)” displayed a dissociation constant (Kd) of 0.146 µM.

(Values after publication PMC12888920, “MMP-9 regulates disulphide isomerase activity of TGM2 to enhance fusion glycoprotein-mediated syncytium formation of respiratory syncytial virus” (Protein & Cell, 2025).)
